Reference: article doi:10.1101/2022.03.05.483071

Target: KIF5A ΔExon27-GFP (human) (UniProt Q12840)
Assay: single-molecule TIRF microscopy, fluorescence intensity of moving spots

percent of moving spots that are a single dimer: 25%
Substance: KIF5A ΔExon27-GFP (from UniProt Q12840 1-998) (natural protein)
